{"source": "patent US20220364094", "about": "“CD44 APTAMER” (The Chiness University Of Hong Kong, published 2022)", "binders": {"B1": {"name": "CD44-Apt1 (biotin) (ssDNA)", "DNA": "ATCCAGAGTGACGCAGCATCGCAACGATTAGTATGCACCCACCGTATAGGTTGGTCTCTGGACACGGTGGCTTAGT"}}, "target": "CD44 hyaluronic acid binding domain (HABD) (UniProt P16070 P16070:21-178)", "sequence (P16070 21-178, one chain of several)": "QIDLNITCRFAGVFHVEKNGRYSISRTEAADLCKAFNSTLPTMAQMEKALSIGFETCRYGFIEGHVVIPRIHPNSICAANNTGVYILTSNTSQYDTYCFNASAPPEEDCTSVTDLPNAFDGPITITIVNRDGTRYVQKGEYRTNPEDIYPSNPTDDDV", "assay": "ELONA; hardly associated with HABD; epitope expected in region encoded by exons 15-16", "conditions": "tags: His-tag, commercial; captured via His-tag antibody; label: biotin (loop of second hairpin, 44G-48A region); two hairpins and one stem (predicted)", "method": "His-tag recombinant CD44 HABD protein was immobilized on ELISA plate using His-tag antibody. The captured CD44 proteins were incubated with various concentrations of biotin-labeled CD44-Apt1 (5 nM-10 μM). Bound Apt1 then were detected by peroxidase-conjugated streptavidin and TMB substrate. […] constant, KD was calculated based on the absorbance values using the one-site binding model for non-linear regression in GraphPad.\nThe major epitope in CD44 protein that is recognized by the CD44-Apt1 was next determined. CD44 protein consists of an extracellular domain, a transmembrane helical domain, and an intracellular signaling transmission domain (FIG. 1H). The extracellular domain contains a hyaluronic acid binding domain (HABD) at its distal N-terminus and a glycosylation-site enriched variable region, the length of which are vary in different splice variants. Titration sandwich enzyme-linked immunosorbent assay (ELISA) was employed to map the epitope for CD44-Apt1. Antibody targeting the C-terminus of CD44 proteins that is the intracellular signaling domain was immobilized on a polystyrene support. Sites without antibody were blocked using bovine serum albumin. […] The amount of biotin-CD44-Apt1 bound to the captured proteins were evaluated using streptavidin conjugated horseradish peroxidase (HRP) and TMB substrate.", "data": [{"binder": "B1", "values": [{"measurement": "Kd", "result": 2360, "unit": "nM"}]}]}
